Target: CD25 (human) (UniProt P01589)
Experiment: flow cytometry on Karpas299 cells (surface CD25); negative control antibody

Sequence of CD25 (human) (P01589 22-272): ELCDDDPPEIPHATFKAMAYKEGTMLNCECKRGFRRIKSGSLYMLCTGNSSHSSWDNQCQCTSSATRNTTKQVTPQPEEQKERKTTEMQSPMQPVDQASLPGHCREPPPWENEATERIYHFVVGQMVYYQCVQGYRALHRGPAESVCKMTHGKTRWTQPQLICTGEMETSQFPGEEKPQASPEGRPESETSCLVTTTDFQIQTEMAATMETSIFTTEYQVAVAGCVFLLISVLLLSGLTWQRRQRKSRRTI

B12 anti-HIV gp120 antibody gave an EC50 of 537 µg/mL.
